Source: the supplement of paper PMC10065799, “High-throughput profiling of sequence recognition by tyrosine kinases and SH2 domains using bacterial peptide display” (eLife, 2023)

biological target: Fyn (UniProt P06241); assay: phosphorylation enrichment, bacterial display (enrichment ratio); higher = better substrate or ligand; peptides without Tyr show the background
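Further: 11-residue human phosphosite peptides and single-mutation variants displayed on the E. coli surface, counted by deep sequencing, each peptide's frequency after selection divided by its frequency in the unselected input library; frequency after pTyr selection over input frequency; kinase dosed for 20-30% of maximal phosphorylation in three min.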

Sequence of Fyn (P06241 whole entry, looked up): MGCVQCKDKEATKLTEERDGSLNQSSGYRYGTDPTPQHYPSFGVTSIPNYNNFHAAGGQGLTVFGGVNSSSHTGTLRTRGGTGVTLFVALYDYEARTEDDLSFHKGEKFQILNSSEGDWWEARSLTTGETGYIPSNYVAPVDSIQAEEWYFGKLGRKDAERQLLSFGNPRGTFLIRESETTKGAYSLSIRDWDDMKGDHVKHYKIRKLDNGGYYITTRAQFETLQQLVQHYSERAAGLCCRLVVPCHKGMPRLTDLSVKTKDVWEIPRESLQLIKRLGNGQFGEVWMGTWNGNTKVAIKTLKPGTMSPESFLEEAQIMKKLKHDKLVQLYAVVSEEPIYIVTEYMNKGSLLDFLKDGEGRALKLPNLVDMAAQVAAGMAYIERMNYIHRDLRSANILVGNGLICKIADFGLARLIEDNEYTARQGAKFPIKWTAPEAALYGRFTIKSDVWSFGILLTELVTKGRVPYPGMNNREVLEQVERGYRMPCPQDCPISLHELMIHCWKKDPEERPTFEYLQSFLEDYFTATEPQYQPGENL

Row | Sequence | phosphorylation enrichment
1 | VVAHHYSFAPD [TNS3_Y601_Q600H] | 0.532
2 | VSNFNYFYHRE [KCNA1_Y413] | 0.433
3 | GESKDYALHAG [SVIL_Y185_V189A] | 0.421
4 | EALDFYGEVRI [PTEN_Y155_T160I] | 1.64
5 | ILCTVYAFKMR [GRM3_Y754_T758M] | 0.567
6 | MKGDFYRFLAE [YWHAG_Y131_YF] | 0.429
7 | LITTLYSGFLG [KCNQ1_Y267_I268S] | 5.49
8 | TAALWYIYLHT [ENG_Y612_S615L] | 0.587
9 | ADARMYGVLLW [PLP1_Y207_P211L] | 3.59
10 | KHCEDYVFSFN [DSC1_Y846_C848F_YF] | 0.472
11 | FGLTLYPNSRE [MEP1A_Y472_V469L] | 0.471
12 | VGQRPYQPLPE [REEP3_Y170] | 0.375
13 | DEEPPHRGPFC [SASH1_Y551_Y551H] | 0.489
14 | VNYGAYINDFK [GLB1_Y488] | 0.912
15 | VMLENYSNLVS [ZFP69_Y109] | 0.563
16 | IGLHAYGDQYR [IDH1_Y135_R132L] | 0.498
17 | PARLEYYENEK [IRS1_Y46] | 0.732

Row | Sequence | phosphorylation enrichment
18 | RASSVFTRSTG [CCR5_Y339_Y339F] | 0.868
19 | YGLPRYRWLTH [TSPAN12_Y143] | 0.492
20 | TVLGEYASPKG [CYP24A1_Y407_L409S] | 0.498
21 | KSIEEYLKLVG [RASAL2_Y381] | 0.404
22 | ASMAKYYASEI [ACADSB_Y372] | 0.491
23 | PELINYHQHNF [BTK_Y361_S366F] | 0.789
24 | FTRNYYVWAVL [CYBA_Y88_R90W] | 0.858
25 | NHYKIHNLCAE [PTEN_Y68_Y68H] | 0.421
26 | ELQGTYTSLQQ [KIF3C_Y574_R571Q] | 2.63
27 | YISLIYTNYEV [GSTP1_Y109_A114V] | 4.07
28 | WQQQSYLDLGI [CTNNB1_Y30_S33L] | 0.545
29 | WASQRYGRELR [BAD_Y110_A107S] | 0.624
30 | SVTCTYSPAHN [TP53_Y126_L130H] | 0.497
31 | LGGSPYPSVPV [FGFR1_Y701_G703S] | 0.564
32 | ALAHKCHGGGG [HBB_Y146_Y146C] | 0.414
33 | VLNDAYENLTR [SYNE2_Y3255] | 0.524

biological target: Hck (UniProt P08631); assay: as above
Sequence (P08631 whole entry, looked up): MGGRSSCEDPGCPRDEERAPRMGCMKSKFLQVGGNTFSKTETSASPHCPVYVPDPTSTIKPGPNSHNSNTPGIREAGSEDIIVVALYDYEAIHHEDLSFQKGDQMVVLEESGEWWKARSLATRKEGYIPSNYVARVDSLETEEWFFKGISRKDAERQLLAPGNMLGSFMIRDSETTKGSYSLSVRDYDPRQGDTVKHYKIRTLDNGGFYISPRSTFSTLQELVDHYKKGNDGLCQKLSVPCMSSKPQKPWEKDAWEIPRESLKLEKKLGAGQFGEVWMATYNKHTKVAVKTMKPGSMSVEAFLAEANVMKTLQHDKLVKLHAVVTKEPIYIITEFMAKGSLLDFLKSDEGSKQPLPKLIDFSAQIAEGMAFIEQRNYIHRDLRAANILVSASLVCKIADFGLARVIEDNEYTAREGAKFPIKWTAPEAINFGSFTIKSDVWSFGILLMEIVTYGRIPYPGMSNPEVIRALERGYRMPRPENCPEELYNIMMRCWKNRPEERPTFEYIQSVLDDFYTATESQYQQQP

Row | Sequence | phosphorylation enrichment
34 | VVAHHYSFAPD [TNS3_Y601_Q600H] | 0.453
35 | VSNFNYFYHRE [KCNA1_Y413] | 0.501
36 | GESKDYALHAG [SVIL_Y185_V189A] | 0.38
37 | EALDFYGEVRI [PTEN_Y155_T160I] | 1.13
38 | ILCTVYAFKMR [GRM3_Y754_T758M] | 0.55
39 | MKGDFYRFLAE [YWHAG_Y131_YF] | 0.349
40 | LITTLYSGFLG [KCNQ1_Y267_I268S] | 3.96
41 | TAALWYIYLHT [ENG_Y612_S615L] | 0.579
42 | ADARMYGVLLW [PLP1_Y207_P211L] | 2.42
43 | KHCEDYVFSFN [DSC1_Y846_C848F_YF] | 0.499
44 | FGLTLYPNSRE [MEP1A_Y472_V469L] | 0.397
45 | VGQRPYQPLPE [REEP3_Y170] | 0.36
46 | DEEPPHRGPFC [SASH1_Y551_Y551H] | 0.542
47 | VNYGAYINDFK [GLB1_Y488] | 0.454
48 | VMLENYSNLVS [ZFP69_Y109] | 0.49
49 | IGLHAYGDQYR [IDH1_Y135_R132L] | 0.529
50 | PARLEYYENEK [IRS1_Y46] | 0.48

Row | Sequence | phosphorylation enrichment
51 | RASSVFTRSTG [CCR5_Y339_Y339F] | 0.579
52 | YGLPRYRWLTH [TSPAN12_Y143] | 0.543
53 | TVLGEYASPKG [CYP24A1_Y407_L409S] | 0.578
54 | KSIEEYLKLVG [RASAL2_Y381] | 0.51
55 | ASMAKYYASEI [ACADSB_Y372] | 0.515
56 | PELINYHQHNF [BTK_Y361_S366F] | 0.836
57 | FTRNYYVWAVL [CYBA_Y88_R90W] | 0.75
58 | NHYKIHNLCAE [PTEN_Y68_Y68H] | 0.476
59 | ELQGTYTSLQQ [KIF3C_Y574_R571Q] | 1.74
60 | YISLIYTNYEV [GSTP1_Y109_A114V] | 2.59
61 | WQQQSYLDLGI [CTNNB1_Y30_S33L] | 0.478
62 | WASQRYGRELR [BAD_Y110_A107S] | 0.4
63 | SVTCTYSPAHN [TP53_Y126_L130H] | 0.517
64 | LGGSPYPSVPV [FGFR1_Y701_G703S] | 0.817
65 | ALAHKCHGGGG [HBB_Y146_Y146C] | 0.45
66 | VLNDAYENLTR [SYNE2_Y3255] | 0.521

tested on: c-Abl (mouse); assay: as above

Row | Sequence | phosphorylation enrichment
67 | VVAHHYSFAPD [TNS3_Y601_Q600H] | 0.583
68 | VSNFNYFYHRE [KCNA1_Y413] | 0.874
69 | GESKDYALHAG [SVIL_Y185_V189A] | 0.488
70 | EALDFYGEVRI [PTEN_Y155_T160I] | 1.11
71 | ILCTVYAFKMR [GRM3_Y754_T758M] | 0.883
72 | MKGDFYRFLAE [YWHAG_Y131_YF] | 0.596
73 | LITTLYSGFLG [KCNQ1_Y267_I268S] | 1.22
74 | TAALWYIYLHT [ENG_Y612_S615L] | 1.18
75 | ADARMYGVLLW [PLP1_Y207_P211L] | 0.741
76 | KHCEDYVFSFN [DSC1_Y846_C848F_YF] | 0.791
77 | FGLTLYPNSRE [MEP1A_Y472_V469L] | 0.629
78 | VGQRPYQPLPE [REEP3_Y170] | 0.547
79 | DEEPPHRGPFC [SASH1_Y551_Y551H] | 0.609
80 | VNYGAYINDFK [GLB1_Y488] | 0.515
81 | VMLENYSNLVS [ZFP69_Y109] | 0.39
82 | IGLHAYGDQYR [IDH1_Y135_R132L] | 0.561
83 | PARLEYYENEK [IRS1_Y46] | 0.725

Row | Sequence | phosphorylation enrichment
84 | RASSVFTRSTG [CCR5_Y339_Y339F] | 0.861
85 | YGLPRYRWLTH [TSPAN12_Y143] | 0.512
86 | TVLGEYASPKG [CYP24A1_Y407_L409S] | 3.4
87 | KSIEEYLKLVG [RASAL2_Y381] | 0.521
88 | ASMAKYYASEI [ACADSB_Y372] | 0.717
89 | PELINYHQHNF [BTK_Y361_S366F] | 0.919
90 | FTRNYYVWAVL [CYBA_Y88_R90W] | 12
91 | NHYKIHNLCAE [PTEN_Y68_Y68H] | 0.696
92 | ELQGTYTSLQQ [KIF3C_Y574_R571Q] | 0.768
93 | YISLIYTNYEV [GSTP1_Y109_A114V] | 2.16
94 | WQQQSYLDLGI [CTNNB1_Y30_S33L] | 0.685
95 | WASQRYGRELR [BAD_Y110_A107S] | 0.728
96 | SVTCTYSPAHN [TP53_Y126_L130H] | 1.17
97 | LGGSPYPSVPV [FGFR1_Y701_G703S] | 0.747
98 | ALAHKCHGGGG [HBB_Y146_Y146C] | 0.758
99 | VLNDAYENLTR [SYNE2_Y3255] | 0.605

biological target: FGFR1 (UniProt P11362); assay: as above
Sequence (P11362 whole entry, looked up): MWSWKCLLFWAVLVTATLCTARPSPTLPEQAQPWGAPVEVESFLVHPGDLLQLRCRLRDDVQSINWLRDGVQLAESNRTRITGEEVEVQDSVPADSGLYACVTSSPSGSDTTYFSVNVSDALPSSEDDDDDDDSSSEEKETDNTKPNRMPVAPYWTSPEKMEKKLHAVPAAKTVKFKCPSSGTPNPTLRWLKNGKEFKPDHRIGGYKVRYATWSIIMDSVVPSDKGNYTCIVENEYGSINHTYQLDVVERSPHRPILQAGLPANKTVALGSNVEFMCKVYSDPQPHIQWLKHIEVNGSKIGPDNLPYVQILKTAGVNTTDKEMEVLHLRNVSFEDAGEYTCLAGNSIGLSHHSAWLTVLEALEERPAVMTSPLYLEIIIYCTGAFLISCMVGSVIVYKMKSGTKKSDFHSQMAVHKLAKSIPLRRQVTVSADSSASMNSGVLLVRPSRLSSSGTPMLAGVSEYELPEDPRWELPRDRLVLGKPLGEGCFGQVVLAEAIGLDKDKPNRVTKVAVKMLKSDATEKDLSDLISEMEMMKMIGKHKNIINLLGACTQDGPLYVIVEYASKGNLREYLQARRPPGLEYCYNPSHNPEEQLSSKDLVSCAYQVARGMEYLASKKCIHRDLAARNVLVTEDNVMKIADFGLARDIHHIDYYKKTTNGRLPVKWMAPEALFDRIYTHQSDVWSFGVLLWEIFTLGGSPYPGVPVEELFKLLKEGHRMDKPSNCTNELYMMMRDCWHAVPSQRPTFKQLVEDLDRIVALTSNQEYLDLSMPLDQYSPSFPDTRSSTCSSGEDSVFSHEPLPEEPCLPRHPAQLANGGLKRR

Row | Sequence | phosphorylation enrichment
100 | VVAHHYSFAPD [TNS3_Y601_Q600H] | 0.683
101 | VSNFNYFYHRE [KCNA1_Y413] | 1.66
102 | GESKDYALHAG [SVIL_Y185_V189A] | 0.365
103 | EALDFYGEVRI [PTEN_Y155_T160I] | 0.538
104 | ILCTVYAFKMR [GRM3_Y754_T758M] | 0.503
105 | MKGDFYRFLAE [YWHAG_Y131_YF] | 0.448
106 | LITTLYSGFLG [KCNQ1_Y267_I268S] | 0.339
107 | TAALWYIYLHT [ENG_Y612_S615L] | 0.81
108 | ADARMYGVLLW [PLP1_Y207_P211L] | 0.591
109 | KHCEDYVFSFN [DSC1_Y846_C848F_YF] | 1.82
110 | FGLTLYPNSRE [MEP1A_Y472_V469L] | 0.682
111 | VGQRPYQPLPE [REEP3_Y170] | 0.47
112 | DEEPPHRGPFC [SASH1_Y551_Y551H] | 0.645
113 | VNYGAYINDFK [GLB1_Y488] | 0.469
114 | VMLENYSNLVS [ZFP69_Y109] | 0.654
115 | IGLHAYGDQYR [IDH1_Y135_R132L] | 0.46
116 | PARLEYYENEK [IRS1_Y46] | 0.533

Row | Sequence | phosphorylation enrichment
117 | RASSVFTRSTG [CCR5_Y339_Y339F] | 0.589
118 | YGLPRYRWLTH [TSPAN12_Y143] | 0.572
119 | TVLGEYASPKG [CYP24A1_Y407_L409S] | 0.405
120 | KSIEEYLKLVG [RASAL2_Y381] | 0.528
121 | ASMAKYYASEI [ACADSB_Y372] | 0.483
122 | PELINYHQHNF [BTK_Y361_S366F] | 0.851
123 | FTRNYYVWAVL [CYBA_Y88_R90W] | 6.92
124 | NHYKIHNLCAE [PTEN_Y68_Y68H] | 0.493
125 | ELQGTYTSLQQ [KIF3C_Y574_R571Q] | 0.63
126 | YISLIYTNYEV [GSTP1_Y109_A114V] | 4.89
127 | WQQQSYLDLGI [CTNNB1_Y30_S33L] | 1.76
128 | WASQRYGRELR [BAD_Y110_A107S] | 0.39
129 | SVTCTYSPAHN [TP53_Y126_L130H] | 0.502
130 | LGGSPYPSVPV [FGFR1_Y701_G703S] | 0.784
131 | ALAHKCHGGGG [HBB_Y146_Y146C] | 0.428
132 | VLNDAYENLTR [SYNE2_Y3255] | 0.559
